Substitutions are numbered along the chain they refer to. Numbers in names are those of the source.
B1: Rad51 NTD with S14D substitution (domain or fragment, human, UniProt Q06609 1-86, looked up)
chain: MAMQMQLEANADTDVEEESFGPQPISRLEQCGINANDVKKLEEAGFHTVEAVAYAPKKELINIKGISEAKADKILAEAAKLVPMGF
notes: also called NTD S14D; source: recombinant
B2: Rad51 NTD with S14E substitution (domain or fragment, human, UniProt Q06609 1-86, looked up)
chain: B1 chain with D14E
notes: also called NTD S14E; source: recombinant

Biological target: T1, recombinant full-length FLAG-Nbs1 (human, UniProt O60934 1-754)
T1 construct: Nbs1 (Nijmegen breakage syndrome gene product), human, full length; also called recombinant full-length Nbs1; source: recombinant, a gift from Tanya Paull
T1 sequence (looked up): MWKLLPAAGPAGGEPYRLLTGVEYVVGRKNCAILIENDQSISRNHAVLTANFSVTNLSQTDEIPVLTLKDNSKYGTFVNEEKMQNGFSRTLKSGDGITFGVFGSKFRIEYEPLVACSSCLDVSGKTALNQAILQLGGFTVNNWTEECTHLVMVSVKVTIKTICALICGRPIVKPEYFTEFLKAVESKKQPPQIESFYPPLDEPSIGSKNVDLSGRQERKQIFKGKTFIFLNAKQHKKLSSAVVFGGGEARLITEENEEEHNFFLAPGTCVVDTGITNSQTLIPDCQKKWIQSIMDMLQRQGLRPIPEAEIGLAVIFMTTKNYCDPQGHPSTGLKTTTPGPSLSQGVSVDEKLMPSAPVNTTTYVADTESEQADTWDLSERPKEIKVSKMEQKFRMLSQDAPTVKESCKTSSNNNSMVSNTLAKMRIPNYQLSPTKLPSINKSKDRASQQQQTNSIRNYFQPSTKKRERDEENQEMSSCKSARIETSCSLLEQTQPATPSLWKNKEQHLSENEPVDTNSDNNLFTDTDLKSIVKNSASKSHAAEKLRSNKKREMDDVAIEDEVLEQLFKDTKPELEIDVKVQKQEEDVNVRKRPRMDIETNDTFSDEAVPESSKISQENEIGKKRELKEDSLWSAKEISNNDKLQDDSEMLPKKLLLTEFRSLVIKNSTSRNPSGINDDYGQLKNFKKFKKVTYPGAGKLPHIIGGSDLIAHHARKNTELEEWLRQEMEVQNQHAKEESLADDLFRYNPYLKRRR
Assay: far-Western, overlay or dot blot; Rad51 NTD kinase reaction (250 μM ATP) resolved by SDS-PAGE, transferred to nitrocellulose, incubated with recombinant full-length FLAG-Nbs1 (∼ 2 μg), detected with anti-Nbs1 antibody
Conditions: both partners purified

Row | Binder | binding result
1 | B1 | binds
2 | B2 | binds
